Experimental data taken from patent publication US20230348616A1 (MIE UNIVERSITY, published 2023).
Positions count from the first letter of the chain named.

B1: NYA-0001 (scFv)
scFv: GEVQLVESGGGVVQPGRSLTPSCSASGFSIRSYDIHWVRQAPGKGLEWVATISYDGSQKYFADSVKGRFTIFRDESENMVYLQMSGLRVEDTAVYHCARGSSGHYEAFDIWGQGTMVTVSSGGGGSGGGGSGGGGSQSVLTQPPSVSAAPGQKVTISCSGSSSNIGNNYVSWYQQLPGTAPKLLIYDNNKRPSGIPDRFSGSKSGTSATLGITGLQTGDEADYYCGTWDSSLSAPWVFGGGTKVTVLGAAAGAGGDYKDDDDKGAAAHHHHHH
notes: also called NYA-0001 tag adduct; NY-R119 expressed in a cultured mammalian cell
B2: NYA-1163 (scFv)
scFv: B1 scFv with Q40L
B3: NYA-2023 (scFv)
scFv: B1 scFv with N168W
B4: NYA-2027 (scFv)
scFv: B1 scFv with T227S
B5: NYA-2035 (scFv)
scFv: B1 scFv with Q40L, N168W, Y169K
B6: NYA-2143 (scFv)
scFv: B1 scFv with Q40L, N168W, Q175R
B7: NYA-2060 (scFv)
scFv: GEVQLVESGGGLVQPGGSLRLSCAASGFSIRSYDIHWVRQAPGKGLEWVATISYDGSQKYYADSVKGRFTISRDESKNTLYLQMNSLRAEDTAVYHCARGSSGHYEAFDIWGQGTLVTVSSGGGGSGGGGSGGGGSQSVLTQPPSVSAAPGQKVTISCSGSSSNIGNWYVSWYQQLPGTAPKLLIYDNNKRPSGIPDRFSGSKSGTSATLGITGLQTGDEADYYCGTWDSSLSAPWVFGGGTKVTVLGAAAGAGGDYKDDDDKGAAAHHHHHH
notes: also called NYA-2060 tag adduct
B8: NYA-2044 (scFv)
scFv: B7 scFv with Q40L
notes: also called NYA-2044 tag adduct
B9: NYA-2045 (scFv)
scFv: GEVQLVESGGGLVQPGGSLRLSCAASGFSIRSYDIHWVRLAPGKGLEWVATISYDGSQKYYADSVKGRFTISRDESKNTLYLQMNSLRAEDTAVYHCARGSSGHYEAFDIWGQGTLVTVSSGGGGSGGGGSGGGGSQSVLTQPPSASGTPGQRVTISCSGSSSNIGNWYVSWYQQLPGTAPKLLIYDNNKRPSGVPDRFSGSKSGTSASLAISGLQSEDEADYYCGTWDSSLSAPWVFGGGTKLTVLGAAAGAGGDYKDDDDKGAAAHHHHHH
notes: also called NYA-2045 tag adduct
B10: NYA-2047 (scFv)
scFv: B7 scFv with E2Q, L12V, G17R, I35M, E75N, N85S
B11: NYA-2048 (scFv)
scFv: B9 scFv with E2Q, L12V, G17R, I35M, L40Q, E75N, N85S
notes: also called NYA-2048 tag adduct
B12: NYC-0004 (scFv, not shown: small tags and cut ends)
scFv: EVQLLESGGGLVQPGGSLRLSCAASGFTFSTYQMSWVRQAPGKGLEWVSGIVSSGGSTAYADSVKGRFTISRDNSKNTLYLQMNSLRAEDTAVYYCAGELLPYYGMDVWGQGTTVTVSSGGGGSGGGGSGGGGSQSELTQPRSVSGSPGQSVTISCTGTERDVGGYNYVSWYQQHPGKAPKLIIHDVIERSSGVPDRFSGSKSGNTASLTISGLQAEDEADYYCWSFAGGYYVFGTGTDVTVL
notes: also called T1 scFv; NYC-0004 tag adduct
B13: NYA-1143 (scFv)
scFv: B1 scFv with Q40L, N168W
B14: NYA-1154 (scFv)
scFv: B1 scFv with I35M, G103N, Q175R, T227A

Target: T1, 1F
T1 construct: also called HLA-A2 / point-mutant NY-ESO peptide 1F complex on T2 cells
Assay: flow cytometry on peptide-pulsed T2 cells, scFv 100 nM

Binder	standardized gMFI
B1	0.6
B2	0.53
B3	0.72
B4	0.57
B5	0.6
B6	2.72
B7	0.52
B8	0.68
B9	0.53
B10	0.48
B11	0.51
B12	3.56

Target: T2, 2M
T2 construct: also called HLA-A2 / point-mutant NY-ESO peptide 2M complex on T2 cells
Assay: as above

Binder	standardized gMFI
B1	7.72
B13	11.9
B14	9.49
B3	6.74
B4	7.84
B5	8.8
B6	13.2
B7	6.93
B8	13.5
B9	8.8
B10	7.34
B11	5.36
B12	5.66

Target: T3, 3A
T3 construct: also called HLA-A2 / point-mutant NY-ESO peptide 3A complex on T2 cells
Assay: as above

Binder	standardized gMFI
B1	7.88
B13	10.2
B14	8
B3	4.92
B4	9.91
B5	5.81
B6	10.3
B7	5.51
B8	10.9
B9	7.46
B10	6.09
B11	4.2
B12	4.75

Target: T4, 4A
T4 construct: also called HLA-A2 / point-mutant NY-ESO peptide 4A complex on T2 cells
Assay: as above

Binder	standardized gMFI
B1	0.83
B14	6.63
B2	0.57
B3	2.48
B4	0.99
B6	7.19
B7	0.73
B8	3.21
B10	0.86
B11	0.63

Target: T5, 5A
T5 construct: also called HLA-A2 / point-mutant NY-ESO peptide 5A complex on T2 cells
Assay: as above

Binder	standardized gMFI
B1	0.78
B13	3.15
B2	0.62
B4	0.75
B7	0.7
B11	0.67
B12	0.65

Target: T6, 6L
T6 construct: also called HLA-A2 / point-mutant NY-ESO peptide 6L complex on T2 cells
Assay: as above

Binder	standardized gMFI
B1	7.97
B13	12.9
B14	9.36
B3	7.51
B4	7.85
B5	8.95
B6	12.9
B7	7.94
B8	13.4
B9	8.8
B10	7.07
B11	6.14
B12	3.78

Target: T7, 7F
T7 construct: also called HLA-A2 / point-mutant NY-ESO peptide 7F complex on T2 cells
Assay: as above

Binder	standardized gMFI
B1	0.97
B14	6.08
B3	4.72
B4	5.41
B5	5.83
B7	2.51
B8	3.62
B9	1.99
B12	5.07

Target: T8, 8A
T8 construct: also called HLA-A2 / point-mutant NY-ESO peptide 8A complex on T2 cells
Assay: as above

Binder	standardized gMFI
B1	6.67
B13	8.74
B14	11.9
B2	6
B3	5.4
B4	9.47
B5	6.41
B6	9.69
B7	6.18
B8	10
B9	7.35
B10	6.61
B11	4.11
B12	3.69

Target: T9, 9A
T9 construct: also called HLA-A2 / point-mutant NY-ESO peptide 9A complex on T2 cells
Assay: as above

Binder	standardized gMFI
B1	6.56
B13	15.1
B14	11.2
B2	4.01
B3	10.8
B4	6.9
B5	11.5
B6	14.5
B7	9.48
B8	15.6
B9	9.98
B10	9.54
B11	7.75
B12	7.99
